According to publication PMC9784018, “Rational Strategy for Designing Peptidomimetic Small Molecules Based on Cyclic Peptides Targeting Protein–Protein Interaction between CTLA-4 and B7-1” (Pharmaceuticals, 2022):
Read-outs that look alike come from different tables or passages of the source. Positions of bridges follow the written chain, without caps; N, C: chain ends. MBP = not defined here

Assays:
Type in all cases: binding
CTLA-4 [1] = biological target: T1, CTLA-4 (Homo sapiens, UniProt P16410); assay: E. coli lysate ELISA of MBP–peptide fusion proteins; conditions: alanine mutants of C4m-310044 as MBP–peptide–His-tag fusion protein, compared with C4m-310044
T1 sequence (P16410 36-223): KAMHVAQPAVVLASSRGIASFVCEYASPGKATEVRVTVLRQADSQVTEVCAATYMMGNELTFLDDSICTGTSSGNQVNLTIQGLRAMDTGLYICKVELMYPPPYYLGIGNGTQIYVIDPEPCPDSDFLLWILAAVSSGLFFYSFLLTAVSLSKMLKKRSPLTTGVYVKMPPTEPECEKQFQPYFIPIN
Excerpt: We generated 14 alanine mutants as an MBP–peptide–His-tag fusion protein (Supplementary Figure S1A), and systematically investigated the effects of alanine substitution by lysate ELISA (Supplementary Figure S1B). […] These eight residues were regarded as important for the interaction between C4m-310044 peptide and CTLA-4. Of the eight residues, six (H2, P3, L5, S9, H11, and F12) were highly conserved even after affinity maturation of C4-302 (Figure 4). These six amino acids were essential residues for binding with CTLA-4. […] Neither of these two residues is involved in binding, but they seem to contribute to affinity. […]
(B) 14 variants shown in (A) were expressed as the MBP-peptide fusion protein. The binding activity of each on CTLA-4 was evaluated using lysate ELISA. The BL21(DE3) E. coli cells transformed with each alanine scanning mutant were grown in 100 μL of 2xYT/50 μg/mL ampicillin at 37 °C until OD600 of 0.5–0.8 was reached. After IPTG (0.5 mM) was added, the broth was incubated at 25 °C, with shaking overnight. The cell broth was lysed using lysis buffer (5 mg/mL lysozyme (FUJIFILM Wako) in PBS, 50% BugBuster ® (v/v) (Merck Millipore) at RT for 2 h, with shaking. The lysate was blocked with TBS/0.05% Tween-20/12.5% skim milk by incubating at RT for 0.5 h, shaking, then added to CTLA-4-immobilized wells on 384-plate and incubated at RT for 1.5 h. After washing and incubation with anti-FLAG M2 ®-peroxidase antibody (1:10,000; Sigma Aldrich) at RT for 1 h, the absorbance at 450 nm/ 650 nm was read with a microplate reader through the reaction with 1x TMB substrate solution and 2N

[2] = biological target: T2, interaction between CTLA-4 and B7-1 (Homo sapiens, UniProt P16410); assay: CTLA-4:B7-1[Biotinylated] Inhibitor Screening Assay (BPS Bioscience kit)
T2 construct: purchased BPS Bioscience Inc
T2 sequence (P16410 36-161 limits assumed): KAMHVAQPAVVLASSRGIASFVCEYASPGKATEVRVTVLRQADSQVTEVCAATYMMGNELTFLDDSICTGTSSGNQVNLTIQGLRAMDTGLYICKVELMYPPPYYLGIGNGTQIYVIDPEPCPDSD
Method: We prepared the C4m-3127 cyclic peptide using chemical synthesis and examined its properties. First, the inhibitory activity was tested using a kit (CTLA-4:B7-1[Biotinylated] Inhibitor Screening Assay, BPS Bioscience Inc.) (Figure 5A). […] In a sequence of C4m-3127, the GG linker behind C-terminal Cys had mutated into Glu and Arg.
A cyclic peptide with a low EC50 value was synthesized by adding glycine to the N-terminus at Toray Research Center.
(B) Flow cytometry affinity analysis.

CTLA-4 [3] = biological target: T1, CTLA-4; assay: ELISA-based determination of EC50 value of MBP–peptide–His-tag fusion constructs
Method: Peptides with binding specificity for CTLA-4 were overexpressed as fusion proteins with MBP at the N-terminus and His-tag at the C-terminus. After BL21(DE3) E. coli cells were transformed, the fusion constructs were grown in 200 mL of 2xYT/[…] ampicillin at 37 °C until an OD600 of 0.5–0.8 was reached. Then, IPTG (0.5 mM) was added. The broth was incubated at 25 °C with shaking overnight. After the cell broth was centrifuged, the pellet was resuspended in 20 mM Tris-HCl pH 7.5/500 mM NaCl and sonicated (Bioruptor UCD-250, Sonicbio Co. Ltd., Kanagawa, Japan). The sample was centrifuged, then the supernatant was purified on Ni Sepharose^TM 6FF (Cytiva, Tokyo, Japan). The purified sample was buffer exchanged to PBS by dialysis and quantified using a kit (BCA Protein Assay Kit, Thermo Fisher Scientific, Waltham, MA, USA).
CTLA-4 (5 μg/mL) was coated onto a NUNC® Maxisoap^TM 384 well plate and incubated at 4 °C overnight. After the wells were washed twice with TBS/0.05% Tween-20, they were blocked with 100 μL of TBS/0.05% Tween-20/5% skim milk by incubating at RT for 1 h with shaking. […] The absorbance was measured at 450 nm/650 nm with a microplate reader (Infinite F200, Tecan Japan Co., Ltd., Kanagawa, Japan). The absorbance versus the concentration of MBP–peptide–His-tag fusion was found. The midpoint concentration was determined as the half-maximal effective concentration (EC50) value.

[4] = inhibition of CTLA-4:B7-1 interaction, luminescence, four-parameter logistic fit, read-out: IC50

| Compound | absorbance in lysate ELISA (CTLA-4 [1]) | other results |
| --- | --- | --- |
| V8A: alanine mutant of C4m-310044 as MBP–peptide–His-tag fusion protein ({MBP}-CLHPFLPIASHHFCGR-{His‑tag}; disulfide 1-14 (inferred); reading uncertain) | same level of absorbance with C4m-310044 |  |
| CC(C)[C@H]1ON(C(=O)OCc2ccccc2)[C@H]2CN(CCc3ccccc3)C(=O)[C@H](Cc3c[nH]cn3)N2C1=O [PGF00432, Benzyl (3R,6S,9aS)-6-((1H-imidazol-4-yl)methyl)-3-isopropyl-4,7-dioxo-8-phenethylhexahydropyrazino [2,1-c][1,2,4]oxadiazine-1(6H)-carboxylate] |  | IC50 [2, 4]: 294 µM |
| G(+1)A: alanine mutant of C4m-310044 as MBP–peptide–His-tag fusion protein ({MBP}-CLHPFLPIVSHHFCAR-{His‑tag}; disulfide 1-14 (inferred); reading uncertain) | same level of absorbance with C4m-310044 |  |
| F12A: alanine mutant of C4m-310044 as MBP–peptide–His-tag fusion protein ({MBP}-CLHPFLPIVSHHACGR-{His‑tag}; disulfide 1-14 (inferred); reading uncertain) | marked decrease in absorbance |  |
| H10A: alanine mutant of C4m-310044 as MBP–peptide–His-tag fusion protein ({MBP}-CLHPFLPIVSAHFCGR-{His‑tag}; disulfide 1-14 (inferred); reading uncertain) | same level of absorbance with C4m-310044 |  |
| L1A: alanine mutant of C4m-310044 as MBP–peptide–His-tag fusion protein ({MBP}-CAHPFLPIVSHHFCGR-{His‑tag}; disulfide 1-14 (inferred); reading uncertain) | same level of absorbance with C4m-310044 |  |
| CC(C)[C@H]1ON(C(=O)OCc2ccccc2)[C@H]2CN(CCc3ccccc3)C(=O)[C@H](CCCNC(=N)N)N2C1=O [PGF00452, Benzyl (3R,6S,9aS)-6-(3-guanidinopropyl)-3-isopropyl-4,7-dioxo-8-phenethylhexahydropyrazino [2,1-c][1,2,4]oxadiazine-1(6H)-carboxylate] |  | IC50 [2, 4]: 147 µM |
| H11A: alanine mutant of C4m-310044 as MBP–peptide–His-tag fusion protein ({MBP}-CLHPFLPIVSHAFCGR-{His‑tag}; disulfide 1-14 (inferred); reading uncertain) | marked decrease in absorbance |  |
| N=C(N)NCCC[C@H]1C(=O)N(CCc2ccccc2)C[C@@H]2N(C(=O)OCc3ccccc3)O[C@H](CC3CCCCC3)C(=O)N21 [PGF00478, Benzyl (3R,6S,9aS)-3-(cyclohexylmethyl)-6-(3-guanidinopropyl)-4,7-dioxo-8-phenethylhexahydropyrazino [2,1-c][1,2,4]oxadiazine-1(6H)-carboxylate] |  | IC50 [2, 4]: 80 µM; IC50 ([2]; values printed in Figure 7, read-out: IC50, CTLA-4/B7-1 interaction inhibitory activity): 60 µM |
| S9A: alanine mutant of C4m-310044 as MBP–peptide–His-tag fusion protein ({MBP}-CLHPFLPIVAHHFCGR-{His‑tag}; disulfide 1-14 (inferred); reading uncertain) | marked decrease in absorbance |  |
| H2A: alanine mutant of C4m-310044 as MBP–peptide–His-tag fusion protein ({MBP}-CLAPFLPIVSHHFCGR-{His‑tag}; disulfide 1-14 (inferred); reading uncertain) | marked decrease in absorbance |  |
| R(+2)A: alanine mutant of C4m-310044 as MBP–peptide–His-tag fusion protein ({MBP}-CLHPFLPIVSHHFCGA-{His‑tag}; disulfide 1-14 (inferred); reading uncertain) | same level of absorbance with C4m-310044 |  |
| I7A: alanine mutant of C4m-310044 as MBP–peptide–His-tag fusion protein ({MBP}-CLHPFLPAVSHHFCGR-{His‑tag}; disulfide 1-14 (inferred); reading uncertain) | marked decrease in absorbance |  |
| P6A: alanine mutant of C4m-310044 as MBP–peptide–His-tag fusion protein ({MBP}-CLHPFLAIVSHHFCGR-{His‑tag}; disulfide 1-14 (inferred); reading uncertain) | marked decrease in absorbance |  |
| F4A: alanine mutant of C4m-310044 as MBP–peptide–His-tag fusion protein ({MBP}-CLHPALPIVSHHFCGR-{His‑tag}; disulfide 1-14 (inferred); reading uncertain) | same level of absorbance with C4m-310044 |  |
| L5A: alanine mutant of C4m-310044 as MBP–peptide–His-tag fusion protein ({MBP}-CLHPFAPIVSHHFCGR-{His‑tag}; disulfide 1-14 (inferred); reading uncertain) | marked decrease in absorbance |  |
| C4m-3127: best binder clone from affinity maturation of C4-302, random loop MHPFLPIVSHHF, expressed as MBP fusion protein ({MBP}-CMHPFLPIVSHHFCER-{His‑tag}; disulfide 1-14 (inferred); not fully specified; reading uncertain) |  | affinity relative to C4-302 (CTLA-4 [3]; MBP fusion protein, times greater affinity than C4-302): 50 times; EC50 (CTLA-4 [3]; purified MBP–peptide–His-tag fusion protein, ELISA on immobilized CTLA-4): 0.0747 µM; IC50 ([2]; inhibition of CTLA-4:B7-1 interaction, luminescence, four-parameter logistic fit, listed as MBP–C4m-3127 peptide–His-tag fusion protein, read-out: IC50): 1.36 µM; IC50 [2, 4]: 11.5 µM |
| P3A: alanine mutant of C4m-310044 as MBP–peptide–His-tag fusion protein ({MBP}-CLHAFLPIVSHHFCGR-{His‑tag}; disulfide 1-14 (inferred); reading uncertain) | marked decrease in absorbance |  |
